# According to publication PMC9675739, “Structural and functional asymmetry of RING trimerization controls priming and extension events in TRIM5α autoubiquitylation” (Nature Communications, 2022):
# B1: R1-WT, isolated RING domain of rhesus TRIM5α (domain or fragment, rhesus monkey, UniProt Q0PF16 2-90, looked up)
# chain: ASGILLNVKEEVTCPICLELLTEPLSLHCGHSFCQACITANHKKSMLYKEGERSCPVCRISYQPENIQPNRHVANIVEKLREVKLSPEE
# notes: TRIM5α RING domain, rhesus monkey, residues 2-90 (methods); the results give residues 2-89; Tags removed by TEV protease; 15N-labelled for NMR; also called RING monomer; isolated RING monomer; source: bacteria, purified (Ni-NTA, Superdex 75); not shown: His6, N-terminal, cleaved; GB1, N-terminal, cleaved
# Target: the molecule itself
# Experiment: AUC; sedimentation equilibrium at different protein concentrations and rotor speeds, 20 °C, global fit to a monomer-dimer self-association model; dimer to monomers
protein,measurement,value
B1,Kd,63 ± 28 µM
